Experiments:
[1] = tested on: lymphatic endothelial cells; assay: BrdU proliferation assay, lymphatic endothelial cells; format: cell-based; conditions: 2 ug/ml Ang2 with 10 ug/ml antibody; 3 days
Protocol: The measurement assay of the proliferation of vascular and lymphatic endothelial cells was conducted using a BrdU assay kit (Roche) Cell. Vascular endothelial cells of P3˜P8 (HUVEC, ATCC) or lymphatic endothelial cells (Lonza) were placed in a collagen-coated 96-well plate (BD Bioscience) at 3000˜5000 cells/well and cultured in EGM-2 media (Lonza) for 16˜24 hours. A mixture of 2 ug/ml of Ang2 (R&D systems) and 10 ug/ml of antibody 10D6 in 2% EBM media was added to the 96-well plate washed with PBS, which was then cultured for 3 days.
For efficiency comparison, an anti-Ang2 antibody (MEDI: Medlmmune Co.) was used. For a BrdU assay, 10 ul of BrdU solution diluted at 1:1,000 was added to each well of the plate to label the cells. The cells were cultured for 1 hour and after the removal of the culture solution, 100 ul of Fixation/Denaturation solution (Roche) was added to each well and then, removed after 30-min wait. An anti-BrdU antibody (Roche) conjugated with peroxidase was diluted in a dilution buffer (Roche) at 1:100, added to each well to react for 1 hour and then, washed four times using a washing buffer (Roche). 100 ul of a TMB substrate was added thereto to react and then, absorption was measured at 450 nm using a Microplate reader (Perkin Elmer).

Tie2 receptor = assay: Internalization of Tie2 receptor in HUVEC (confocal microscopy); format: cell-based, human
Protocol: HUVEC (ATCC) cells (1×10^6) were cultured in m-slide 8 wells (#80826, ibidi) for 24 hours and then subjected to serum starvation in serum-free EBM-2 media (Lonza) for 3 hours. 200 ng/ml of Ang1 (R&D systems) or 2ug/ml of Ang2 (R&D systems) and 10 ug/ml of antibody 10D6 were each diluted in EBM-2 media and then, the cells were treated with them and incubated according to time specified in the picture. The cells fixed with 4% formaldehyde (Sigma) was dyed first with an anti-Tie2 antibody (R&D systems) and then subjected to a secondary dye with an anti-goat Alexa 555 antibody (red, Life technology) and an anti-mouse Alexa 488 antibody (green, Life technology). The dyed cells were treated with Vectashield mounting medium with DAPI (Vector labs) and then observed using a confocal laser scanning microscopy (Carl Zeiss).

Tie2 and Akt = assay: In vivo phosphorylation of Tie2 and Akt in mouse lung tissue; conditions: C57BL6 mouse; 5 mg/kg antibody alone or with 20 ug Ang2, tail vein; 1 hour
Protocol: In addition, the phosphorylation of Tie2 receptor and a protein (Akt) which participates in downstream signaling of Tie2 by treating anti-Ang2 antibody was measured in animal model (in vivo). More particularly, 5 mg/kg of antibody was injected alone or together with 20 ug of Ang2 into tail vein of 7-8 week old C57BL6 mouse, and 1 hour after, lung tissue was removed. The obtained lung tissue was subjected to homogenization lysis using lysis buffer (Roche) and FastPrep kit (MP biomedicals). Activities of Tie2 and Akt in the obtained tissue lysate were measured by the above-described method.

[2] = tested on: blood vessels in tumor tissues; assay: Immunofluorescence of blood vessels (CD31) and pericytes (PDGFR-β) in LLC tumors; format: in vivo, mouse; conditions: LLC tumors of Example 14; compared to Fc- or 4H10-treated tumors
Source text: To examine changes in blood vessels in tumor tissues after treated with antibody, frozen sections were obtained and subjected to immunofluorescence staining using a blood vessel specific marker, CD31 and a pericyte specific marker, PDGFR-β.
In particular, the tumor tissues obtained from Example 14 were frozen using OCT compound (Sakura Finetek), and frozen sections were obtained therefrom using cryostat (Leica). The obtained tumor frozen sections were blocked with 0.3% TBST (TBS mixed with 0.3% Triton X-100) buffer supplemented with 5% goat serum (Jackson Immunoresearch) for one hour. To the blocking buffer, hamster anti-CD31 antibody (1:200, Millipore) and rat anti-PDGF receptor beta antibody (1:200, eBioscience) were added, and the frozen sections were added thereto to be allowed to react for 3 hours. the reacted product was washed with TBS three times, and then, the blocking buffer mixed with cy3-conjugated anti-hamster IgG antibody and FITC-conjugated anti-rat IgG antibody (1:1,000, Jackson Immunoresearch) was added the frozen sections to be allowed to react for 2 hours. After washing with TBS three times, the frozen sections were covered with coverslip (Marenfield) using Fluorescence mounting medium (DAKO). The stained tumor frozen sections were observed using LSM5 (Zeiss) confocal microscope. […]

LLC tumor = assay: Co-administration of anti-Ang2 antibody and cisplatin in LLC lung cancer animal model; format: in vivo, mouse; conditions: LLC mice; antibody 10 mg/kg i.p. every three days, five times; cisplatin 3 mg/kg i.p. once; control Fc of IgG1
Protocol: The synergistic effect of co-treatment of antibody 10D6 and cisplatin was examined.
In particular, referring to Example 14, LLC tumor cells were subcutaneously injected into mice. When the size of tumors reached 50˜100 mm^3, anti-Ang2 antibody 10D6 was injected at the concentration of 10 mg/kg via an intraperitoneal injection every three days a total of five times. After administering antibody 10D6 twice, 3 mg/kg of cisplatin (Sigma-Aldrich) was intraperitoneally injected once. The size of tumor (V) was calculated using the following formula: Volume (V)=(width)2×length/2
For comparison, the same experiment was performed to a control group treated with Fc of IgG1 and a comparative group treated with antibody 4H10.
In addition, an experiment was performed to examine whether the synergistic effect obtained by co-administration of 10D6 and cisplatin as described above is due to the increased transporting efficiency of the administered cisplatin induced by the vascular normalization by treatment of 10D6. Cisplatin binds to DNA in a living body and induces crosslinking, thereby inducing cell death. Rat monoclonal anti-Cisplatin modified DNA (CP9/19) antibody (1:200, Abcam), which is capable of binding to DNA modified by cisplatin in tumor frozen sections, and hamster anti-CD31 antibody (1:200, Millipore), were used for immunofluorescence staining, and fluorescence images were obtained using LSM5 confocal microscope (Zeiss). In addition, to examine necrotic region, the tumor frozen sections were stained with H&E according to standard protocol, and then, Eosin+ cell region in tumor was observed. The obtained results are illustrated in FIG. 18C.

B1: 10D6: mouse anti-Ang2 monoclonal antibody from hybridoma KCLRF-BP-00295; heavy chain variable region SEQ ID NO: 7, light chain variable region SEQ ID NO: 9 (antibody, V domains shown)
VH: DVQLQESGPGLVKPSQSLSLTCTVTGYSITSDYAWNWIRQFPGNKLEWMGYINYSGNTDYNPSLKSRSSITRDTSKNQFFLQLNSVTTGDTATYYCARGNFEGAMDYWGQGTSVTVSS
VL: SIVMTQTPKFLLVSAGDRVTITCKASQSVSNDVAWYQQKPGQSPKLLIYYASNRYPGVPDRFTGSGYGTDFTFTISTVQAEDLAVYFCQQDYSSPWTFGGGTKLEIK
modifications: Synthetic (Heavy chain variable region of an anti-Ang2 antibody); Synthetic (Light chain variable region of anti-Ang2 antibody)
Question: B1 was tested. Which “growth of lymphatic endothelial cells (BrdU)” value [1] did it give?
Answer: The value was “increased”.

Question: And the “time from which internalization of the Tie2 receptor started” value (Tie2 receptor; 2 ug/ml Ang2 and 10 ug/ml antibody)?
Answer: Its value is 30 min.

Question: And the “location of internalized Tie2 and antibody” value (Tie2 receptor; anti-EEA1 antibody dye)?
Answer: Its value is “located in an early endosome”.

Question: And the “phosphorylation of Tie2 and Akt in lung tissue in vivo” value (Tie2 and Akt)?
Answer: Its value is “considerable effect of phosphorylating Tie2 and a protein, Akt”.

Question: What about the “blood vessel density and vascular normalization in tumor” value [2] of the same molecule?
Answer: Its value is “decreases the density of blood vessels in tumor and induces vascular normalization”.

Question: And the “tumor size decreased by, compared to the control” value (LLC tumor)?
Answer: Its value is 38.5%.

Source: patent publication US9505841B2, “Use of an anti-Ang2 antibody” (Samsung Electronics Co., Ltd., priority 2013, dated 2016)
